Data reported in patent publication US5763573A, “GTPase activating protein fragments” (Chiron Corporation, priority 1995, dated 1998).

Experiments:
H-ras protein = H-ras protein (Homo sapiens, UniProt P01112); experiment: Typical GAP assay with immunoprecipitated H-ras bound to α-32P-GTP, TLC; assay type: biochemical; conditions: sufficient GAP; 60 minutes at room temperature
Source text: A typical GAP assay can be carried out as follows. Approximately 0.8 micrograms of H-ras protein obtained as described by Trahey, et al., supra was bound to α-32P-GTP followed by precipitation of the complex with 13 micrograms of an anti-ras antibody, 157-181, that recognizes the carboxyl terminal end of the molecule. Specifically, 157-181 recognizes the carboxyl terminal residues at positions 157-181. Adari et al., 1988 Science, […]:518. Next, 10 micrograms of sheep-anti-mouse IgG, and 10 microliters of protein A-Sepharose beads were added. As a control, the same reactants were combined except that rat IgG replaced 157-181, and goat anti-rat IgG replaced sheep anti-mouse IgG. The pellets were washed with 20 mM tris hydrochloride, pH 7.4, containing 20 mM sodium chloride, 1 mM magnesium chloride and 1 mM DTT and resuspended in the same solution. Four microliter aliquots of the immune complex were then mixed with 10 microliters of GAP, or, as a control, buffer without GAP. After 60 minutes incubation at room temperature the Sepharose beads were washed again, and the bound nucleotides analyzed using thin layer chromatography with 1M LiCl as the solvent. […] The assay detects GAP in a semi-quantitative, dose-dependent fashion. Quantitation can be improved by scraping the relevant regions of the plate and measuring cpm in GDP by use of a gamma counter.

ras p21 protein = experiment: Filter assay of ras p21 hydrolysis of 32-P gamma-GTP with and without GAP; assay type: biochemical; conditions: FIG. 13; presence and absence of GAP; 30 minutes at room temperature
Description: The above four peptides, in the following two experiments, were tested for their abilities to inhibit the hydrolysis of GTP by ras p21 protein, in the presence and absence of GAP. The first experiment involved peptides G65, G73 and 891. It was carried out as follows: purified wild type ras p21 protein was incubated with 0.25 μM 32-P gamma-GTP in 100 mM NaPO4, pH 6.8, 0.5 mM DTT, 0.5 mM EDTA, 0.005% Na cholate, and 0.5 mg/ml BSA for 15 minutes at 30° C. The mixture was then diluted ten fold with TNM buffer (comprising 20 mM Tris-HCl, pH 7.0, 100 mM NaCl, 5 mM MgCl2). 20 μl (0.05 μg of p21) of this mixture was then combined with 2 μl of the peptide in 25 mM NaOAc, pH 5.5 and incubated for 5 minutes at room temperature. The GAP assay was initiated by the addition of 12 ng GAP in 5 μl TNM buffer with 1 mg/ml BSA or 5 μl TNM BSA buffer for the GAP independent reactions, and the resulting mixture was incubated for 30 minutes at room temperature. The samples were then filtered through nitrocellulose membranes and washed three times with cold TNM. The filters were dried and their radioactivity counted. […] In the presence of GAP, the radioactive ras p21-GTP complex is hydrolyzed to GDP and ras p21 protein, thus reducing the resulting amount of radioactive p21-GTP bound to the filter and consequently, the radioactive counts detected. […]

Sequence of H-ras protein (P01112 whole entry): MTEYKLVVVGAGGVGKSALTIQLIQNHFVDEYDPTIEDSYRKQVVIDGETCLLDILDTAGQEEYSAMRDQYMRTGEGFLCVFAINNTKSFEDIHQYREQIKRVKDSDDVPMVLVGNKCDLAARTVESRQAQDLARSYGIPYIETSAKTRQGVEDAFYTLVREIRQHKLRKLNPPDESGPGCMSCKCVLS

Row | Substance | hydrolysis of GTP to GDP (H-ras protein) | effect on hydrolysis of GTP (radioactive counts of ras p21-GTP complex on filter) (ras p21 protein)
1 | GAP: guanine triphosphatase activating protein purified from human placenta, about 115,000-120,000 daltons | near complete hydrolysis | –
2 | peptide G73: peptide corresponding to amino acids positions 975-990 of the full length GAP (GNVPELPDTTEHSRTD; UniProt P20936 975-990, looked up, fragment) | – | do not affect
